The record followed here is publication doi:10.1101/2024.04.02.587325, “Structural characterization of the Pseudomonas Aeruginosa MexR–mexR repressor-operator complex: a small-angle X-ray and neutron scattering perspective”.

The target in this data set is MexR (Pseudomonas aeruginosa, UniProt P52003). As to the kind of experiment: ITC; one set of sites; N = 4.0 ± 0.1; dH 122.3 ± 5.2 kJ/mol; ITC: 20 mM NaPO4 pH 7.0, 150 mM NaCl, 5 mM beta-mercaptoethanol, 20 C; SEC of the complex: 20 mM HEPES, 150 mM NaCl, 2 mM TCEP. The following applies: protein: recombinant; tags: N-terminal His6-Trx removed by TEV; residual SM; chain copies: 4; blunt. On the technique in general: In ITC the heat of successive injections is recorded.
Chain of MexR (P52003 5-139, tags or fused parts left off): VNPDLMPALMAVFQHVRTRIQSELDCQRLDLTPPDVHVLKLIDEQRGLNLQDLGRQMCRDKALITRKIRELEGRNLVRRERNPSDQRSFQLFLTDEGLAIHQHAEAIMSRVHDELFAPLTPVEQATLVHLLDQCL

B1: 60 bp mexR-mexA operator DNA (PI+PII) (dsDNA)
DNA 1: AAATGTGGTTGATCCAGTCAACTATTTTGCTTATTTTAGTTGACCTTATCAACCTTGTTT
DNA 2: AAACAAGGTTGATAAGGTCAACTAAAATAAGCAAAATAGTTGACTGGATCAACCACATTT
Take B1: the Kd is 206 ± 52 nM.

By Kd is commonly meant the constant that tells how readily two partners part at equilibrium.
